Measured values taken from publication PMC314469, “Protein Interaction Networks by Proteome Peptide Scanning” (PLoS Biology, 2004).

T1: Myo5 SH3 (MYO5_YEAST), Q04439
T1 chain: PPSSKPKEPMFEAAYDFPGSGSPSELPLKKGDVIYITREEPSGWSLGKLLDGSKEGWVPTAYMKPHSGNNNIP


Biological target: T1, Myo5 SH3 (MYO5_YEAST), Q04439
Assay: SPOT array

normalised SPOT signal, Boehringer light units (BLU); mean over the file's lines of this peptide	Binder
257	SETSHHSPSAPFQR [YLL016W 216-229]
23.1	SFDYLFHPFVPSTI [YPR039W 3-16]
272	SENRLRTPLKPLVN [YGL021W 219-232]
227	TFSIYSIPSKPGES [YPL100W 474-487]
287	SFTRMPLPTPPIEG [YGL235W 82-95]
209	SFRKLASPSNPNFF [YMR036C 409-422]
147	SLISMETPEQPHQQ [YAL047C 546-559]
123	SPVNLLKPFNPTLP [YJL050W 730-743]
239	SLFPLKTPISPGTS [YOR106W 114-127]
314	SLLIHSLPRKPLLM [YGL104C 357-370]
357	SWRSLTKPKIPLYK [YMR287C 119-132]
121	TEEILPTPVQPGGH [YOL070C 304-317]
168	TASQLQNPPPPPST [YGR086C 14-27]
81.8	TPINFVFPNLPLEH [YHR007C 237-250]
99.7	SFVHLTEPSQPLSD [YOR032C 362-375]
315	TAAELQAPPPPPSS [YPL004C 14-27]
77.7	TAPIHSTPKPPPND [YHR182W 732-745]
1430	SPKKHVSPSRPPSV [YAL028W 272-285]
168	SPLSWSGPLTPPTF [YNL243W 594-607]
413	TLRSMIPPFTPQLD [YGR092W 484-497]

normalised SPOT signal, Boehringer light units (BLU); mean over the file's lines of this peptide	Binder
467	SPSTMDFPKLPSFQ [YPL089C 234-247]
290	TEDGFVIPALPAAV [YPR190C 407-420]
249	SLVKFSSPMTPLLE [YHR072W 246-259]
366	SPFTFLFPFLPTII [YER017C 223-236]
28.4	SLSALVGPVIPHTI [YMR177W 252-265]
76.1	SPNDHSDPSSPSNR [YNR014W 177-190]
359	SPKPFSKPQEPVKA [YCR088W 389-402]
61.5	SENYLVKPTIPGTT [YDL035C 918-931]
252	TLPPLSSPMNPNGH [YDR096W 584-597]
276	SPKKLASPRTPNAN [YKR077W 157-170]
882	TLFRFIVPFNPYFS [YLR198C 4-17]
119	TLHELGVPITPIAF [YOR184W 245-258]
135	SPVPLGSPRGPLPV [YLR163C 237-250]
504	TLKKFVLPSLPRKN [YOR034C 339-352]
233	SPRHYNVPSSPIAP [YIL101C 572-585]
69.2	SWAVLPVPGGPVMY [YJL195C 85-98]
143	SLDNFYNPLGPEDR [YNR012W 89-102]
193	SPRSLPTPILPSMS [YML083C 47-60]
127	TAWDMVPPYSPLSE [YPR090W 8-21]
133	TLIEYMGPAPPKGS [YLR178C 145-158]

normalised SPOT signal, Boehringer light units (BLU); mean over the file's lines of this peptide	Binder
164	TLEWLLTPYTPGDD [YLR422W 982-995]
110	SELTFIAPTQPVST [YPL101W 254-267]
18	TLATLTEPKLPKSY [YOL111C 18-31]
65.2	SPSQYQYPSQPALS [YKL146W 143-156]
53.3	SPSTHAAPVTPIIS [YNL027W 321-334]
183	SPKFLNSPDLPERT [YDL225W 441-454]
91.7	SLAVYNIPLFPDDP [YLL002W 276-289]
188	TFRDMDLPQHPVIH [YLR030W 45-58]
505	SWLTMLPPMAPLLS [YMR158W-A 93-106]
223	TEGKYAPPSQPSMA [YDL195W 822-835]
208	SFTPFNRPSDPSNG [YPL066W 70-83]
205	SFVGFPKPLLPRNH [YHR082C 909-922]
7260	SLTSLPPPPPPQFS [YPL014W 217-230]
50.5	SELYYEGPETPTPS [YPL186C 118-131]
152	SPFSLFIPTIPATT [YNL043C 79-92]
97.3	SFRELWQPVDPSRE [YLR301W 124-137]
131	SLQQFYNPESPIQP [YOR155C 390-403]
317	SPSDFNKPDLPELI [YER003C 229-242]
